Laboratory results: the supplement of paper PMC9233669
This sample holds only a part of the variants without activity.

Assays:
biotinyl-Met-oxazolone = test: self-aminoacylation, catalytic enhancement (BMO) (fold over background); higher = more active; k-Seq, kA / k0A0; sequences stand for … in GGGAAUGGAUCCACAUCUACGAAUUC…UUCACUGCAGACUUGACGAAGCUG
Outline: (§1)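 Catalytic enhancement equals the median kA over the uncatalyzed rate, the latter read from the low-activity peak of a bimodal Gaussian fit. Values of kA came from fitting each sequence's fraction reacted to a pseudo-first-order model, with 1000 bootstraps. Reacted RNA was captured with streptavidin and quantified by triplicate qPCR and Illumina sequencing after 90 minutes at room temperature with 2–1250 μM biotinyl-aminoacyl-oxazolone and 0.43 μM mutagenized RNA pools bearing a 21-nt variable region.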

biotinyl-Ile-oxazolone = test: self-aminoacylation, catalytic enhancement (BIO) (fold over background); higher = more active; k-Seq, kA / k0A0; sequences stand for … in GGGAAUGGAUCCACAUCUACGAAUUC…UUCACUGCAGACUUGACGAAGCUG
Outline: as §1

biotinyl-Phe-oxazolone = test: self-aminoacylation, catalytic enhancement (BFO) (fold over background); higher = more active; k-Seq, kA / k0A0; sequences stand for … in GGGAAUGGAUCCACAUCUACGAAUUC…UUCACUGCAGACUUGACGAAGCUG
Outline: as §1

biotinyl-Leu-oxazolone = test: self-aminoacylation, catalytic enhancement (BLO) (fold over background); higher = more active; k-Seq, kA / k0A0; sequences stand for … in GGGAAUGGAUCCACAUCUACGAAUUC…UUCACUGCAGACUUGACGAAGCUG
Outline: as §1

biotinyl-Trp-oxazolone = test: self-aminoacylation, catalytic enhancement (BWO) (fold over background); higher = more active; k-Seq, kA / k0A0; sequences stand for … in GGGAAUGGAUCCACAUCUACGAAUUC…UUCACUGCAGACUUGACGAAGCUG
Outline: as §1

biotinyl-Val-oxazolone = test: self-aminoacylation, catalytic enhancement (BVO) (fold over background); higher = more active; k-Seq, kA / k0A0; sequences stand for … in GGGAAUGGAUCCACAUCUACGAAUUC…UUCACUGCAGACUUGACGAAGCUG
Outline: as §1

Sequence	self-aminoacylation (biotinyl-Met-oxazolone)	self-aminoacylation (biotinyl-Ile-oxazolone)	self-aminoacylation (biotinyl-Phe-oxazolone)	self-aminoacylation (biotinyl-Leu-oxazolone)	self-aminoacylation (biotinyl-Trp-oxazolone)	self-aminoacylation (biotinyl-Val-oxazolone)
AAAUUAGCUAAUAGUCGCAAG [Fam3.1 aminoacylation ribozyme variant]	1.85	2.36	2.21	1.92	3.09	1.81
AAAUUUCCUAAUAGUCGCAAG [Fam3.1 aminoacylation ribozyme variant]	1.1	1.24	1.2	1.18	0.976	1.09
AAAUUUGCGAAUAGUCGCAAG [Fam3.1 aminoacylation ribozyme variant]	1.59	1.71	1.99	1.33	1.54	1.56
AAAUUUGCUAAUACUCGCAAG [Fam3.1 aminoacylation ribozyme variant]	1.33	1.36	1.63	1.25	1.51	1.34
AAAUUUGCUAAUAGGCGCAAG [Fam3.1 aminoacylation ribozyme variant]	1.28	1.41	1.29	1.51	1.25	1.04
AAAUUUGCUAAUAGUAGCAAG [Fam3.1 aminoacylation ribozyme variant]	1.38	1.59	2.63	1.26	1.96	1.27
AAAUUUGCUAAUAGUCACAAG [Fam3.1 aminoacylation ribozyme variant]	1.62	1.58	2.81	1.26	1.71	1.49
AAAUUUGCUAAUAGUCGCAAC [Fam3.1 aminoacylation ribozyme variant]	1.31	1.88	1.64	1.91	1.52	1.51
AAAUUUGCUAAUAGUCGCAUG [Fam3.1 aminoacylation ribozyme variant]	2.13	2.28	2.04	2.81	3.67	1.8
AAAUUUGCUACUAGUCGCAAG [Fam3.1 aminoacylation ribozyme variant]	1.96	2.05	1.86	1.59	2.54	1.63
AACGUUGCUAAUAGUCGCAAG [Fam3.1 aminoacylation ribozyme variant]	1.81	1.64	2.3	1.66	1.97	1.68
AACUUUACUAAUAGUCGCAAG [Fam3.1 aminoacylation ribozyme variant]	2.23	2.07	6.76	2.26	2.92	1.86
AACUUUCCUAAUAGUCGCAAG [Fam3.1 aminoacylation ribozyme variant]	1.4	1.29	2.29	1.58	1.72	1.11
AACUUUGAUAAUAGUCGCAAG [Fam3.1 aminoacylation ribozyme variant]	1.66	1.71	2.61	1.91	1.55	1.42
AACUUUGCAAAUAGUCGCAAG [Fam3.1 aminoacylation ribozyme variant]	1.96	2.3	4.66	2.8	1.99	1.94
AACUUUGCUAAGAGUCGCAAG [Fam3.1 aminoacylation ribozyme variant]	3.93	2.78	12.8	4.13	5.02	2.62
AACUUUGCUAAUAGUCCCAAG [Fam3.1 aminoacylation ribozyme variant]	1.56	1.92	3.69	1.6	1.51	1.64
AACUUUGCUAAUAGUCGCAAU [Fam3.1 aminoacylation ribozyme variant]	2.79	2.94	6.33	3.35	2.77	2.51
AACUUUGCUAAUAGUCGGAAG [Fam3.1 aminoacylation ribozyme variant]	1.38	1.43	3.03	1.15	1.49	1.4
AACUUUGCUAAUGGUCGCAAG [Fam3.1 aminoacylation ribozyme variant]	2.44	2.47	9.47	2.64	3.24	2.43
AACUUUGCUAAUUGUCGCAAG [Fam3.1 aminoacylation ribozyme variant]	2.71	2.78	9.97	2.44	4.3	2.39
AACUUUGCUACUAGUCGCAAG [Fam3.1 aminoacylation ribozyme variant]	2.34	2.14	3.3	1.91	2.43	2.24
AACUUUGCUAGUAGUCGCAAG [Fam3.1 aminoacylation ribozyme variant]	2.63	2.68	3.31	2.9	3.53	2.67
AACUUUUCUAAUAGUCGCAAG [Fam3.1 aminoacylation ribozyme variant]	2.11	1.97	3.55	2.33	2.05	1.71
AAGAUAGCUAAUAGUCGCAAG [Fam3.1 aminoacylation ribozyme variant]	1.57	1.63	2.4	1.82	1.34	1.34
AAGAUUGCAAAUAGUCGCAAG [Fam3.1 aminoacylation ribozyme variant]	1.27	1.43	1.38	1.58	2.48	1.29

Sequence	self-aminoacylation (biotinyl-Met-oxazolone)	self-aminoacylation (biotinyl-Ile-oxazolone)	self-aminoacylation (biotinyl-Phe-oxazolone)	self-aminoacylation (biotinyl-Leu-oxazolone)	self-aminoacylation (biotinyl-Trp-oxazolone)	self-aminoacylation (biotinyl-Val-oxazolone)
AAGAUUGCCAAUAGUCGCAAG [Fam3.1 aminoacylation ribozyme variant]	1.8	1.51	1.69	1.63	1.88	1.81
AAGAUUGCUAAAAGUCGCAAG [Fam3.1 aminoacylation ribozyme variant]	1.87	1.66	3.21	1.76	1.56	1.61
AAGAUUGCUAAUAGUCGAAAG [Fam3.1 aminoacylation ribozyme variant]	1.03	1.28	2.96	0.966	1.34	0.945
AAGAUUGCUAAUAGUCGCAAG [Fam3.1 aminoacylation ribozyme variant]	1.32	1.53	4.83	1.33	2.15	1.31
AAGAUUGCUAAUAGUCGCAUG [Fam3.1 aminoacylation ribozyme variant]	1.45	1.68	1.36	1.91	1.46	1.39
AAGAUUGCUAAUAGUCGGAAG [Fam3.1 aminoacylation ribozyme variant]	0.909	1.4	1.84	0.837	1.54	1.22
AAGCUAGCUAAUAGUCGCAAG [Fam3.1 aminoacylation ribozyme variant]	1.36	2.2	4.5	2.26	2.47	1.62
AAGCUCGCUAAUAGUCGCAAG [Fam3.1 aminoacylation ribozyme variant]	1.75	2.09	3.66	2.49	2.2	1.95
AAGCUUGCUAAUAGUCGAAAG [Fam3.1 aminoacylation ribozyme variant]	1.73	1.58	3.53	1.16	1.88	1.35
AAGCUUGCUAAUAGUCGCAAC [Fam3.1 aminoacylation ribozyme variant]	1.28	1.86	2.11	1.44	1.32	1.24
AAGCUUGCUAAUAGUCGCAAG [Fam3.1 aminoacylation ribozyme variant]	1.69	1.85	3.96	1.67	2.02	1.59
AAGCUUGCUAAUCGUCGCAAG [Fam3.1 aminoacylation ribozyme variant]	1.55	1.85	2.14	1.65	2.85	1.45
AAGGUUGCUAAUAGUCGCUAG [Fam3.1 aminoacylation ribozyme variant]	1.03	1.3	1.54	1.19	1.27	1.03
AAGGUUGCUAAUAGUCGGAAG [Fam3.1 aminoacylation ribozyme variant]	1.08	1.51	4.52	1.23	3.38	0.973
AAGGUUGCUAAUUGUCGCAAG [Fam3.1 aminoacylation ribozyme variant]	1.36	1.56	1.4	1.14	2.85	1.41
AAGGUUGCUAGUAGUCGCAAG [Fam3.1 aminoacylation ribozyme variant]	1.3	1.18	1.77	0.971	1.3	1.07
AAGGUUUCUAAUAGUCGCAAG [Fam3.1 aminoacylation ribozyme variant]	1.04	1.64	2.65	1.05	1.6	1.53
AAGUAUGCCAAUAGUCGCAAG [Fam3.1 aminoacylation ribozyme variant]	1.77	2.21	2.34	1.53	1.43	1.46
AUCACCCUGGUCAUCGAGCGA [Fam2.1 aminoacylation ribozyme variant]	2.16	2.01		3.35	2.62	2.53
AUUCACCUAAGUCAUCGGGUA [Fam2.2 aminoacylation ribozyme variant]	2.44	2.81		3	2.8	2.62
AUUCACCUAGGGCAUCGGGGG [Fam2.2 aminoacylation ribozyme variant]	2.65	2.98	7.22	3.63		2.93
AUUCACGUAGGUCAUCGGGCG [Fam2.2 aminoacylation ribozyme variant]	2.41	2.07	5.97	2.57		2.56
CCACACUUCACGCAAUCGGCC [Fam1B.1 aminoacylation ribozyme variant]	2.28	2.2	13.9		4.2	3.47
CGACACUUCAAGCAAUCGGUG [Fam1B.1 aminoacylation ribozyme variant]	2.37	2.4		2.22		2.27
CUACUUCAAACAUUCGGGCUG [Fam1A.1 aminoacylation ribozyme variant]	2.06	2.24				2.14
